Common to all, as to test: EMSA
Holding throughout (conditions): tags: MBP fusion

For one data set, the target named is ZFP SBS#217 (synthetic). Here is the method:
(§1) Affinity is measured by titrating purified protein against a fixed amount of labeled double-stranded oligonucleotide target. The target typically comprises the natural binding site sequence flanked by the 3 bp found in the natural sequence and additional, constant flanking sequences. The natural binding site is typically 9 bp for a three-finger protein and 2×9 bp +intervening bases for a six finger ZFP. […] For the assay the target is added at a concentration of 1 nM or lower (the actual concentration is kept at least 10-fold lower than the expected dissociation constant), purified ZFPs are added at various concentrations, and the reaction is allowed to equilibrate for at least 45 min. In addition the reaction mixture also contains 10 mM Tris (pH 7.5), 100 mM KCl, 1 mM MgCl2, 0.1 mM ZnCl2, 5 mM DTT, 10% glycerol, 0.02% BSA. (NB: in earlier assays poly d(IC) was also added at […].) The equilibrated reactions are loaded onto a 10% polyacrylamide gel, which has been pre-run for 45 min in Tris/glycine buffer, then bound and unbound labeled target is resolved by electrophoresis at 150V.

The target in the next data set is ZFP SBS#242 (synthetic, UniProt P08047). Here is the method: as §1
Sequence of ZFP SBS#242 (P08047 other isoform, or with tags, fused parts or gaps): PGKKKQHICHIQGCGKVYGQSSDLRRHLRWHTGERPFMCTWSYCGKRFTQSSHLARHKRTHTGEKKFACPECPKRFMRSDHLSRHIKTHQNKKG
Another data set addresses T1, ZFP SBS#270 (synthetic).
T1 chain: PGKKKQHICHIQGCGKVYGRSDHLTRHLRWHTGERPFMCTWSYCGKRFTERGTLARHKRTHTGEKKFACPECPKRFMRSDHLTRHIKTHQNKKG
Here is the method: as §1

A further data set concerns the target T2, ZFP SBS#269 (synthetic).
T2 chain: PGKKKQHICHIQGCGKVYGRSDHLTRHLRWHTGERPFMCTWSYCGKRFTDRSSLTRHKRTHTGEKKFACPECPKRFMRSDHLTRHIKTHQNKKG
Here is the method:
as §1

The next data set concerns the target ZFP SBS#289 (synthetic). Here is the method:
as §1

In another data set the target is T3, ZFP SBS#265 (synthetic).
T3 chain: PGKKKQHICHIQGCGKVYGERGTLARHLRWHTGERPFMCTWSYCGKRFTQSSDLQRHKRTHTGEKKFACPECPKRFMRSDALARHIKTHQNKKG
The protocol: as §1

A further data set addresses T4, ZFP SBS#264 (synthetic).
T4 chain: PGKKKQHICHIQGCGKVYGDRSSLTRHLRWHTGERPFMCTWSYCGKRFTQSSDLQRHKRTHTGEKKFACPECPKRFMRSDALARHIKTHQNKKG
Here is the method:
as §1

The next data set addresses T5, ZFP SBS#225 (synthetic, UniProt P08047).
T5 chain: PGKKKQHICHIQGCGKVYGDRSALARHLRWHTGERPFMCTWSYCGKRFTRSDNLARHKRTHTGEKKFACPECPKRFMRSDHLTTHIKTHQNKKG
Here is the method:
as §1

The target of the next data set is T6, ZFP SBS#207 (synthetic).
T6 chain: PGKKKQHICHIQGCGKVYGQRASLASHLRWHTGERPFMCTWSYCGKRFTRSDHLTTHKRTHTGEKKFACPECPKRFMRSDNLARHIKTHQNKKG
The protocol: as §1

The target in a further data set is T7, ZFP SBS#205 (synthetic).
T7 chain: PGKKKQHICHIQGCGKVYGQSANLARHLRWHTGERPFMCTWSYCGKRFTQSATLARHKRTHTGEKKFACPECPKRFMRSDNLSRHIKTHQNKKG
The protocol: as §1

In the next data set the target is ZFP SBS#246 (synthetic). The protocol:
as §1

The target of the next data set is ZFP SBS#247 (synthetic). The protocol: as §1
The target in a further data set is ZFP SBS#211 (synthetic). The protocol: as §1
Sequence of ZFP SBS#211 (synthetic) (chain, as listed by the source): as the sequence (P08047 other isoform, or with tags, fused parts or gaps) above, with D23A, R25A, Q50R, S52D, H53A, R56S, R78Q, S79R, D80A, S83A counted along it
The target of another data set is ZFP SBS#209 (synthetic). The protocol:
as §1

A further data set concerns the target T8, ZFP SBS#212 (synthetic).
T8 chain: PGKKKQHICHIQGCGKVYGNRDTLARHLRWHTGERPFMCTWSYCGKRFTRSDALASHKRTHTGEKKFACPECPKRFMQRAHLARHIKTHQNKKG
The protocol: as §1

Another data set concerns the target T9, ZFP SBS#210 (synthetic).
T9 chain: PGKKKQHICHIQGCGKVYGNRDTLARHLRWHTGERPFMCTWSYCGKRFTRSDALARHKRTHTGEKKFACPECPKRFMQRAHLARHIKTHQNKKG
Here is the method: as §1

A further data set concerns the target ZFP SBS#240 (synthetic). The protocol: as §1
A further data set addresses T10, ZFP SBS#250 (synthetic).
T10 chain: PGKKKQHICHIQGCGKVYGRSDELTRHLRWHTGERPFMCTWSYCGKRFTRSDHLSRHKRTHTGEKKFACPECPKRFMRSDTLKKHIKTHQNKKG
The protocol: as §1

Another data set has as its target ZFP SBS#249 (synthetic). Here is the method:
as §1

The target of a further data set is T11, ZFP SBS#272 (synthetic).
T11 chain: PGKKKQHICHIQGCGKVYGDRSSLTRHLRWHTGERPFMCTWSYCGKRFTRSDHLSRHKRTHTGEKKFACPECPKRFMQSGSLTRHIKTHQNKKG
The protocol: as §1

In the next data set the target is T12, ZFP SBS#243 (synthetic).
T12 chain: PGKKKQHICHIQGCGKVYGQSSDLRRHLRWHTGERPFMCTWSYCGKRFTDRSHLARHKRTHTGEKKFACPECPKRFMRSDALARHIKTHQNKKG
Here is the method:
as §1

In another data set the target is T13, ZFP SBS#223 (synthetic).
T13 chain: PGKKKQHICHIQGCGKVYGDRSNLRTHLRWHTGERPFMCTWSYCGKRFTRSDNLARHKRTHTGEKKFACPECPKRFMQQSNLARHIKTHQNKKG
Here is the method:
as §1

The target of another data set is ZFP SBS#239 (synthetic). The protocol:
as §1

Another data set addresses T14, ZFP SBS#238 (synthetic, UniProt P08047).
T14 chain: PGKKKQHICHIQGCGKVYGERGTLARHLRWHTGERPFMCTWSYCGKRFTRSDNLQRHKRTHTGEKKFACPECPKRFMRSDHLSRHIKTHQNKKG
Here is the method: as §1

Another data set concerns the target T15, ZFP SBS#237 (synthetic, UniProt P08047).
T15 chain: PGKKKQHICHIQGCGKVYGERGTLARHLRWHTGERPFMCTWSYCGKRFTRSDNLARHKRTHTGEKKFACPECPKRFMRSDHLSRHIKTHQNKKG
Here is the method: as §1

The target in a further data set is T16, ZFP SBS#236 (synthetic, UniProt P08047).
T16 chain: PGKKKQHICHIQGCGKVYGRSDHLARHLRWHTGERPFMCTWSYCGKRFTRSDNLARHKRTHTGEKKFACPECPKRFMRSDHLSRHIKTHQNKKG
The protocol: as §1

The next data set deals with T17, ZFP SBS#283 (synthetic).
T17 chain: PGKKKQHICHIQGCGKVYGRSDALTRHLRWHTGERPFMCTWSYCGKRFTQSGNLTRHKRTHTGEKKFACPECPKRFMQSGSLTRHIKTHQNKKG
The protocol:
as §1

The target of another data set is ZFP SBS#245 (synthetic). Here is the method: as §1
Sequence of ZFP SBS#245 (synthetic) (chain, as listed by the source): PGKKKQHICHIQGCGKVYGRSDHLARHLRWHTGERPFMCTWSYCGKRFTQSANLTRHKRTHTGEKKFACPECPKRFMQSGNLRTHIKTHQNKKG
The target in a further data set is ZFP SBS#244 (synthetic). Here is the method: as §1
In the next data set the target is ZFP SBS#232 (synthetic). Here is the method:
as §1

The target of the next data set is ZFP SBS#233 (synthetic). Here is the method:
as §1

The next data set has as its target T18, ZFP SBS#235 (synthetic).
T18 chain: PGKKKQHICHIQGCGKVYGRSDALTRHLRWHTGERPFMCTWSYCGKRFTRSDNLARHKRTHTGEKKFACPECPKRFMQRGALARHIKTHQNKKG
Here is the method: as §1

This is an account of results in patent US20030068675, “Position dependent recognition of GNN nucleotide triplets by zinc fingers” (published 2003).

Sequence of ZFP SBS#233 (synthetic) (chain, as listed by the source): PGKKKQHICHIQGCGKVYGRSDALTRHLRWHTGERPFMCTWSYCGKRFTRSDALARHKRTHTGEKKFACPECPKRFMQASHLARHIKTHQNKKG
Sequence of ZFP SBS#249 (synthetic) (chain, as listed by the source): as the sequence (P08047 other isoform, or with tags, fused parts or gaps) above, with Q20R, S22D, D23E, R25T, Q50R, S52D, A55S, H81E, S83R counted along it
Sequence of ZFP SBS#209 (synthetic) (chain, as listed by the source): as the sequence (P08047 other isoform, or with tags, fused parts or gaps) above, with D23A, R25A, Q50R, S52D, H53A, R78Q, S79R, D80A, S83A counted along it
Sequence of ZFP SBS#217 (synthetic) (chain, as listed by the source): as the sequence (P08047 other isoform, or with tags, fused parts or gaps) above, with S21R, D23A, R25A, Q50D, S51R, H53A, H81N, S83A counted along it
Sequence of ZFP SBS#240 (synthetic) (chain, as listed by the source): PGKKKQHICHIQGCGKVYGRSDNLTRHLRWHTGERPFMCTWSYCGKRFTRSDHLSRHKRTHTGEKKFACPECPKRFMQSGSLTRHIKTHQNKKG
Sequence of ZFP SBS#289 (synthetic) (chain, as listed by the source): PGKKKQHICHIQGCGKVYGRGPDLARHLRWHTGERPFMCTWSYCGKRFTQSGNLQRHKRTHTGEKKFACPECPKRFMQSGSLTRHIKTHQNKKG
Sequence of ZFP SBS#246 (synthetic) (chain, as listed by the source): as the sequence (P08047 other isoform, or with tags, fused parts or gaps) above, with Q20R, S22D, D23N, R25A, Q50R, S52D, R78Q, D80G, H81N, S83T counted along it

B1: GAGGTCGTA (dsDNA)
DNA 1: GAGGTCGTA
DNA 2: TACGACCTC
The molecule B1 displayed a Kd with ZFP SBS#217 of 40 nM.

B2: GGGGGTGCT (dsDNA)
DNA 1: GGGGGTGCT
DNA 2: AGCACCCCC
In the data set with ZFP SBS#242, B2 displayed a dissociation constant (Kd) of 1 nM.

B3: GGGGCCGGG (dsDNA)
DNA 1: GGGGCCGGG
DNA 2: CCCGGCCCC
In the case of B3, the results for the Kd with ZFP SBS#270 and with ZFP SBS#269 were 52.5 nM and 5 nM, respectively.

B4: GCAGAAGCG (dsDNA)
DNA 1: GCAGAAGCG
DNA 2: CGCTTCTGC
B4: binding in the data set with ZFP SBS#289 was put at a Kd of 800 nM.

B5: GTGGCTGCC (dsDNA)
DNA 1: GTGGCTGCC
DNA 2: GGCAGCCAC
In the case of B5, the Kd was 600 nM with ZFP SBS#265 and 27 nM with ZFP SBS#264.

B6: TGGGAGGTC (dsDNA)
DNA 1: TGGGAGGTC
DNA 2: GACCTCCCA
Molecule B6 returned a dissociation constant Kd in the data set with ZFP SBS#225 of 6 nM.

B7: GAGTGGTTA (dsDNA)
DNA 1: GAGTGGTTA
DNA 2: TAACCACTC
B7: in the data set with ZFP SBS#207, the Kd stood at 70 nM.

B8: GAGGTAGAA (dsDNA)
DNA 1: GAGGTAGAA
DNA 2: TTCTACCTC
On to B8, for which, in the data set with ZFP SBS#205, the dissociation constant Kd came out at 80 nM.

B9: GAAGGGGAG (dsDNA)
DNA 1: GAAGGGGAG
DNA 2: CTCCCCTTC
On to B9, for which the Kd with ZFP SBS#246 and in the data set with ZFP SBS#247 was 2 nM in each case.

B10: GGAGTGGTT (dsDNA)
DNA 1: GGAGTGGTT
DNA 2: AACCACTCC
Regarding B10, the dissociation constant (Kd) with ZFP SBS#211 was found to be 140 nM; with ZFP SBS#209, 35 nM; with ZFP SBS#212, 400 nM; with ZFP SBS#210, 65 nM.

B11: GCAGGGGAG (dsDNA)
DNA 1: GCAGGGGAG
DNA 2: CTCCCCTGC
As to B11, in the data set with ZFP SBS#240, binding was put at a Kd of 1 nM.

B12: GCGGGGGCG (dsDNA)
DNA 1: GCGGGGGCG
DNA 2: CGCCCCCGC
B12: the Kd turned out to be 70 nM with ZFP SBS#250 and 20 nM with ZFP SBS#249.

B13: GCAGGGGCC (dsDNA)
DNA 1: GCAGGGGCC
DNA 2: GGCCCCTGC
Regarding B13, in the data set with ZFP SBS#272, binding was put at a Kd of 20 nM.

B14: GTGGGCGCT (dsDNA)
DNA 1: GTGGGCGCT
DNA 2: AGCGCCCAC
Take B14: in the data set with ZFP SBS#243, the Kd came out at 75 nM.

B15: GATGAGTAC (dsDNA)
DNA 1: GATGAGTAC
DNA 2: GTACTCATC
Turning to B15, the Kd with ZFP SBS#223 was 105 nM.

B16: GGCGGGGAG (dsDNA)
DNA 1: GGCGGGGAG
DNA 2: CTCCCCGCC
On to B16, for which the Kd with ZFP SBS#239 was 0.4 nM.

B17: GGGGAGGCC (dsDNA)
DNA 1: GGGGAGGCC
DNA 2: GGCCTCCCC
Regarding B17, the Kd amounted to 0.8 nM in the data set with ZFP SBS#238 and 0.3 nM in the data set with ZFP SBS#237.

B18: GGGGAGGGG (dsDNA)
DNA 1: GGGGAGGGG
DNA 2: CCCCTCCCC
B18 returned a Kd with ZFP SBS#236 of 0.3 nM.

B19: GCAGAAGTG (dsDNA)
DNA 1: GCAGAAGTG
DNA 2: CACTTCTGC
In the data set with ZFP SBS#283, B19 yielded an equilibrium dissociation constant (Kd) of 2 nM.

B20: TAAGAAGGG (dsDNA)
DNA 1: TAAGAAGGG
DNA 2: CCCTTCTTA
Regarding B20, the values for the Kd with ZFP SBS#245 and with ZFP SBS#244 were 235 nM and 100 nM, respectively.

B21: GGTGTGGTG (dsDNA)
DNA 1: GGTGTGGTG
DNA 2: CACCACACC
Consider B21, for which the values for the Kd in the data set with ZFP SBS#232 and with ZFP SBS#233 were 50 nM and 100 nM, respectively.

B22: GTAGAGGTG (dsDNA)
DNA 1: GTAGAGGTG
DNA 2: CACCTCTAC
For B22, the Kd with ZFP SBS#235 worked out at 80 nM.
